PMC3857619 (2013)

Molecular target: recombinant PTB (Homo sapiens (Human), UniProt P26599)
Test: in vitro co-IP (anti-PTB) with western blot

Sequence of recombinant PTB (P26599 whole entry): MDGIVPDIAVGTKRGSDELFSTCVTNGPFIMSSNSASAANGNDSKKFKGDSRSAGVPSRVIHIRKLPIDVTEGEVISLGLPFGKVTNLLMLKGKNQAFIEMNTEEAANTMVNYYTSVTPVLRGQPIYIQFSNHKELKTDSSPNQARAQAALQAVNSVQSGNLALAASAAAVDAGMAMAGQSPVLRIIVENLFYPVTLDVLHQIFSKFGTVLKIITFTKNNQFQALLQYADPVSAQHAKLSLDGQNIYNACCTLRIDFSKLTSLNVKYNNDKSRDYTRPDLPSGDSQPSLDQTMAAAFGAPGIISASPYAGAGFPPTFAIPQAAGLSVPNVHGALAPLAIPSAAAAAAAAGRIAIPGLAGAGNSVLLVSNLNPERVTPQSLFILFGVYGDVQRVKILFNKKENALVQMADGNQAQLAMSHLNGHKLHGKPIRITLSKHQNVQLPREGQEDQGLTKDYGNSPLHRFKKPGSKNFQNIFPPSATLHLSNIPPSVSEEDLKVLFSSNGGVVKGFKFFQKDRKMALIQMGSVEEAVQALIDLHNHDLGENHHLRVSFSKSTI

B1: recombinant hnRNPA1 (protein)
chain: MSKSESPKEPEQLRKLFIGGLSFETTDESLRSHFEQWGTLTDCVVMRDPNTKRSRGFGFVTYATVEEVDAAMNARPHKVDGRVVEPKRAVSREDSQRPGAHLTVKKIFVGGIKEDTEEHHLRDYFEQYGKIEVIEIMTDRGSGKKRGFAFVTFDDHDSVDKIVIQKYHTVNGHNCEVRKALSKQEMASASSSQRGRSGSGNFGGGRGGGFGGNDNFGRGGNFSGRGGFGGSRGGGGYGGSGDGYNGFGNDGGYGGGGPGYSGGSRGYGSGGQGYGNQGSGYGGSGSYDSYNNGGGGGFGGGSGSNFGGGGSYNDFGNYNNQSSNFGPMKGGNFGGRSSGPYGGGGQYFAKPRNQGGYGGSSSSSSYGSGRRF
  binding result: binds
